In the domain aggregation screens of Martell et al. (2025):

experiment: soluble fraction after stress (log2 fold change); higher = more stays soluble; pooled small domains, quantitative proteomics; conditions: stress: 75 degC
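Further: 20 min heating vs room temperature control held 20 min.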

| Sequence | soluble fraction (log2) |
| --- | --- |
| HMGKEWPTPDNVEEWKKLVKKARLWPIQADQAQSEETRERNRKKWELFVAYAKRFGYRAGIGETGKPFVNN | -1.15 |
| HMGKINEIVANNIAILRKKNRLSLEELGKLSGVSKSMLALIEKGDGNPTLGILWKIANGLGVPFDELTRRP | -1.35 |
| HMGKLGENIKRIREGMGLSQRQFGELIGKSDSQIWSYENDRTDILASTLYKIAAVANVDFNNLMAGIIP | -1.07 |
| HMGKLYRDRYAPLEPDGARAGDRVFIISLEKEGTLERIDLPRKTATVLLGSSIRSTFPLDDLYQPRG | -0.25 |
| HMGKMTSTLGVHIAAYRKEHGETVAQFASRSGVSVSSIRRIESGISDPSADLVWKISRHMGMTMDDLFKKM | -3.74 |
| HMGKNISEEDMLGYFKKIDLDYDAETKEVIAPTFRHDLFRLADLAEEVARFFGYDNIPTTLPSGEAT | 0.185 |
| HMGKPAGLIRELGNHPEDEKPVTLNNGRFGPYVKHGKVMASLTKADSPDDITFDRAIELIAIKAEKMAAKG | 0.173 |
| HMGKPTPASQVATRWLTGNLPESLPVAGPAPSFEALARTVSTDLHPRSVLQELVRLGVAEEANGVVTLRRQ | 0.0474 |
| HMGKPVTMELLIPYSQGSLVHRISEAGEVAKTEYQNDGTYMQVTFTPSAKDHALMQEVASYRI | 0.653 |
| HMGKSDDSLAAEKFIQHVRKNGELSYEQAYRMVHAYFPDFRNFEGMVSGAVKSGYLILIQKSTGLFLRAKE | -3.68 |
| HMGKTEMPFSTFLTEVDKGNIVSVDIRGSEISGNFRDGKGFKTYSPNYPNLVEKLSAKGVAITAGPR | 0.389 |
| HMGKTKFTEMSALELKAYAELNNNSMHWVYRMLYIGGGDVGFRKGMKELGYSGKFIWMTLERLKKS | -1.24 |
| HMGKTTQEIEERSSTSTLTLTQTPKEIISVQGKKSDQSFFTNIQYTQNGKVIVPKQTGIYDTIKVVFTVSL | -1.48 |
| HMGKVLIYKPNMSVSDVAIRLGISNAEIIKRLMGLGVMTSINQTIDRDTIELVAMDLGFSIEN | -1.81 |
| HMGLAGVQSDVKVSFDGDLLVVTSDIARSFNLFAVDGRLIRSVNLIAGRNEIRGLERGFYLAEKQKIFV | -1.93 |
| HMGLAWTVEGRTVLLGRTADRIELYNVGGGLVALARESDRISAPGVGLYVVRVVSDGQSVSQKIWIT | -2.39 |
| HMGLDMSLEREQHRALREASQWYARLADEQVDSDAERAWRHWVAADEANQRAWQYIEAVSQRFDG | -0.605 |
| HMGLDNEGFERLRQKITRLLSEEALPVKELVDSFASKMRQEVLETLAFLQQEGVIEEKNGKLFLK | -0.189 |
| HMGLIDNLTRIMEKKNISAYQLEKAGIVKQTTFTSWKKGTQPALDKIIKIMQYIEVTPNELFGY | -2.95 |
| HMGLKWVYYTNIEPDGNKINNQKLYDILKQKFVYPVIISRDELDSMELKDLTYDSYIDVEGRYFKPYNLD | -2.04 |
| HMGLNPSILVKLGNANIKTIDNLADLASDELKEILEDISITSKEADEIIMRARSSWFEEDDKKEDNI | 0.0765 |
| HMGLPAWVPQNYIDRVTAIYDYSADKDDELTFNEGSTIFVLKKNDDGWWEGVMDGVTGLFPGNYVEAT | -0.971 |
| HMGLQLTPVRRRVLEILLHEHRALGAYDILDKLRSEGLGSQPPVAYRALDFLVTHGFAHKIERLNAF | -0.829 |
| HMGLQRLTVSPEDAGVRIDKYLAEQLPDITRSYLQKLLKDGSVQMNGKPVKASTKTAVGAVIALTIPEP | -0.26 |
| HMGLSAEAARMAIQDAGLSKEDFAQKLGIKKVERVVEWEAGTSKPTFVQAQKIANATNIPFGYLFLVNPPK | 0.285 |
| HMGLTRRAQLEVADANLKRLYPGMHQSWVTAIAEYLHSSYWRYINSLEPEYAASIQRVYEQHIDAM | -0.0229 |

| Sequence | soluble fraction (log2) |
| --- | --- |
| HMGLTYEQILTDVQRFVTQNHADTLSNEGNPEEARKLLKDYILQYVQNRSYHVDGQTTEELVDSLYED | -0.231 |
| HMGLVDSLEPLLRRVYEALPQRRSMTTERLAVAAGLDEESVKVALARLQLSAFVGVDERGWHRSL | -2.98 |
| HMGLVLIDSYNDIGSAKLITNKIRNLGLIFEENENKINVFAGPFEKNDINLKIDFLIRNGYTNAQLY | -3.08 |
| HMGLVQQSAQKSDDAAKLMAANNLNAAQSKYQLPDEAEKDFFTFAFERGYAVEDFVDAGLVDKIMADFSA | -0.447 |
| HMGLVVIGTEAGYPAEKAGILAGDRIRKLNGAAVPDYDTFLTALAARKGEPSAIELERDGKTLEVTVSPL | 0.105 |
| HMGLWWTEAERELVKTTIEQLYKDTNIAEPVDSKNLRASIPALKAMRTGLSAENQARVDTLLGALQV | -0.462 |
| HMGMAGILDSARMASFIQEKLGYGGGQIRASVMGGHGDDMVPLPRYSTVAGVPLSDVLTQNEIDEMFAQ | -0.0337 |
| HMGMDALIGRRVFVSEEILPGDTGGRMAVDGDSWRAISVGTASNIPAGTEVRIRGHQSLVLEVEP | -0.169 |
| HMGMEENLLKERKQILMDIMKSKEYQPMKVKELAMVLNVPKEDREELRYVLNELMNEGKIVESKKGKFSIA | 0.129 |
| HMGMESFWNRVANLLNTSTVVELAQILDVKRSTLSSWIHSDRRPPMEVLLKITRLTGVDIHRLE | -2.59 |
| HMGMETQLSPKEKSIYTIIQNRPNIQSGEVSEKLAIPLPTVKRILSDLINKGLIEKQGSGRNVSYTI | 0.338 |
| HMGMFNENLRFLRQKRQMSQQAFASILGIPRTTYSEYEKGNTEPNLKLLIRLSELLDVSLDNLISDDLTHN | -2.82 |
| HMGMKTSQKLARQREIVRLIRAQTIRTQAELADALRERAFPVSQPTLSKDIAELGLIKVPLPDSGYRYQLP | -1.73 |
| HMGMNKEHFIIELKIYLKALNPKDQAIILAKYKALFDARVAEGETEEQVAKSLGKPRVIAEEILKEQGIE | -3.26 |
| HMGMSMNEFLNNRLEQLAVEAVDKSSLGEEIFFYAEPATINLFKDAVDEDEYKVVFPVLKSIIEVEQKLSR | -1.24 |
| HMGMTAPIPGVVLKVSVLPGQKVERGDELLTIEAMKMFNVMRSPSSGTIATVHIKDGDRVVQGQPLVTFA | -0.555 |
| HMGMTTSILDDVIGMGPKRKKALLKAFGSFGALRNATLEEIKQTHTVPEQVAEDVYAVLVQYNSKSE | -0.681 |
| HMGMVKLNEEYLEKVKKHRKELHITQLQISKKLGWSLSRYQRFESGFYKEIEDDAPKKIKEEFGIDYSLL | -0.726 |
| HMGNGALLTLTVKERQVIQLVAEGKSNKQIARDLNVTPETIKSHMKNIFAKLKVDNRAQAAVMVQQ | -2.16 |
| HMGNGDTNERIATLMQILAKQESIINQYGLENPVVSPQMYVRTLKKVVELSGFKDASSYFADIPDGWKA | 0.0405 |
| HMGNIADARRDASYVFLIGEWAKSSNLTEKKLAGLIQSNHLDIKYGITVTDVIADIRKYKNDPTYNPF | -2.19 |
| HMGNIKVPSVMGMTLEGAEKVAKDNGAVIEVLEYKESTEEDGTIIEQSPKADMTVATLEKISVVISGK | 0.161 |
| HMGNIYKALLGKLEKQLGFLPEGTKLPPEQELAEKFGVSKPTLRRALAELAVRGIIVKQNGIGSVVAGS | -0.55 |
| HMGNKKLVLKLSKKLIKIPSFLNIYSVKLTKNGRELEINLDKSQNEAIDIINLIKKNNISFLEFDIKKR | -1.43 |
| HMGNLIIFYDAQTGSAPLLKAVKTSGATLVYEYKNLHGIAIRPSSKTSIEDAIAYFKKVNGVLSVE | -3.77 |
| HMGNPSGLPLPRFASTRSEPINVRVGPGQKYDIAWTYLKSGIPVEIIQEFDTWRKIRDFDGAEGWIHQNLL | -1.22 |

| Sequence | soluble fraction (log2) |
| --- | --- |
| HMGNSRNDQDLQTQIIKILAEGPASSRTLIETLTIEDEAALLKTLKRLLMNKKISLTPSNLYKL | -1.06 |
| HMGPAAGVVEKYNLAHLSTGEMIRKEIAEGSDFGKMAAGIINKGELLSDEFVVALIENSIEHHKNVDGFLF | -0.195 |
| HMGPAVGAIRVEGNKRVEPETVRTYLTFNVGDPYDLAKVDESLKALFATGLFQDVRIRREGNTVVIVVVEN | -0.701 |
| HMGPAYQTQRQEAFAALSEIAAKNPQLMQVAGDLVFRAADFPMADELADRLAKTLPPQLQDKKGQP | -0.455 |
| HMGPEISEDAKVVFDRLKNHDEILLNNFKSEFDLSNKKWDKIIKELRGNDLISIIKSEDGNLFIKP | -0.125 |
| HMGPELGENEKLIFDIIKKESKMELGILKAQVDLSNKKWDKALKGLATHGLTKVNKTDDGLFIELI | -0.555 |
| HMGPIITKTYNLSYATARDVNDIIKSKKSARGDIVIDTRTNSLIVSDVQEKIDLIDEIVATL | -0.368 |
| HMGPLSDRSVADWLLRLGLADTANNRLLLQVMHAAGLPLERTAVRAMRETAAGRPEGTDAREWLQAAAAAQ | -0.571 |
| HMGPNSVPDLRGKSLRQAMKMVNDLELKAIFEGEGIVVGQVPAPGKPVPETKILKITLSLEPY | -1.58 |
| HMGPPAVGSKLQDARKAQQLSLDELSKRAGVSKSMLSEVERNQANPTVGVLWRLATALGISLTDLLG | -1.11 |
| HMGPPLISLDDGLAKGFGVGVGDTLTINILGRRITATIASLREIDWQSLRFDFAVVLSPGVLEGA | 0.237 |
| HMGPRKAGSEATRQKILDAAEILFAERGFHSVSVRDITTEAGVDVALINYHFGSKQLLFETVFMRR | -0.32 |
| HMGPRPLPAEFTHPSLRALLALGTTRGGVTSADVKTALEAASVPAGRRAAVLRALDDNGIEVHTEP | -0.0155 |
| HMGPSEVTLDNFVGKNYTDVVNDTSYQFTFKKEEKSDQTHAAGIIIAQSPKKGIKVKSNSTVTLTVSTG | 0.359 |
| HMGPVDFYQMFISELQHLAEKPVTVDALIESTQLHKSQLTEWLKRAVDDGVVKKLNRPARFQVKNK | 0.0567 |
| HMGPVRDLGLLESAAHRPTTALWGRDVYATIEKKAAALLDSLVRDRPLADGNKRLGWLAALV | 0.291 |
| HMGPYGAGSAAPAEDGSGPEGWTVKGNAKSMLYHTEGSPYYGRTNADVWFRDEESAEAAGFRRWDRK | -0.0366 |
| HMGQAELPYSEFLREVNNGQVKSVIIEGSEITGFYKTSGTSFNVIAPDDPKLVERLMAQGVEVRAQPA | 0.144 |
| HMGQDLEAFLLKAVGQLDQGDGVTLDALLKVAVSNGGFVREVAEAKLDDMLDAGTLDEPRFGWFRVGAT | -0.41 |
| HMGQDLSYYIKIVQNQQPVDPLTGEPKVLDYGEVIRQAQILQMLDTGDLDRDKAIGQLSMKDAL | 0.292 |
| HMGQELRFVIQDHEAGIRLDHYLTQQVEGYSRSHLRKLMDQGLITVDGSYRKAGYRLNVGDVIHVVIPPTR | -0.813 |
| HMGQELTPVERTALDIAARDGKVSTRILAQEAGIGLRTASKTLAALAERGLLTWHGTSRRDPQQHYTS | -0.0688 |
| HMGQISDESVLKEMVVQLIADNPKEVASYLGGKETLLQWFMGQVARATKGKADPQAVKQLLLDEFEKLK | 0.0498 |
| HMGQKETIVDLLKTNGTMTQLALAEAIYGDKNHGPNIYSVLMGRVNSGAVLRTGSQPAYYSLSG | 0.209 |
